In US20250230234A1 (Sanofi, published 2025):
Several values for one entry are separate records, joined by “and”; a condition that tells them apart may be missing. Equal values may be shown once.

Experiments:
[1] = target: T1, human GPRC5D (full length, on cells) (human, UniProt Q9NZD1 1-345); assay: cell-based or functional assay
[2] = target: T1, human GPRC5D (full length, on cells); assay: flow cytometry on MM.1R cells, apparent KD, mean
Protocol: (§1) FACS analyses were performed to determine the ability of the ADCC-enhanced antibodies to bind to cells that express GPRC5D on their surface.
(§2) Analyses were performed with Forecyt® Software. Cells were first gated in FSC (forward scatter)/SSC (side scatter). From the resulting cell population, single live cells were gated. Binding was analyzed as median fluorescence intensity (MFI) of the secondary antibody. Curves and apparent KD (“AppKD”) calculations were generated using GraphPad Prism Software (FIG. 2).

[3] = target: T2, cynomolgus FcγRIIIa expressed on HEK293 T cells (cynomolgus, UniProt Q8SPW2 17-254); assay: flow cytometry on HEK293 T cells expressing cyno FcγRIIIa, apparent KD, mean of three
T2 construct: whole, on cells; also called cyno FcγRIIIa; cy FcγRIIIa
T2 sequence (Q8SPW2 17-254): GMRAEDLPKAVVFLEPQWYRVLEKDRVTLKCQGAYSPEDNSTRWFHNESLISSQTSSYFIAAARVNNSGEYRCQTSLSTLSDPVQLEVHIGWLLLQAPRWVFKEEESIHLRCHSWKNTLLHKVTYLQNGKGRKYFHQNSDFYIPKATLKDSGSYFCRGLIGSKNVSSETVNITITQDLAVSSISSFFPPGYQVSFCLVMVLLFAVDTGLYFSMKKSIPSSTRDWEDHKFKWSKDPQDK
Protocol: (§3) The antibodies were tested using FACS for their ability to bind cells that express human or cynomolgus FcγRIIIa on their surface. The cell lines used were recombinant stable HEK293 T cells expressing human FcγRIIIa V158 and cynomolgus FcγRIIIa to assess cynomolgus cross-reactivity.
(§4) For dose-response curves, cells were incubated with a serial dilution of the antibodies (from 0.0001 μg/mL to 100 μg/mL) for 1 h at 4° C.
(§5) The apparent KD was determined for each molecule by drawing an appropriate non-linear regression curve using the one site-specific binding four parameters model with GraphPad Prism Software (FIG. 1).

[4] = target: T1, human GPRC5D (full length, on cells); assay: flow cytometry on MM.1R cells, apparent KD, N = 3
Protocol: as §1, §2

[5] = target: T3, huFcRn (human, UniProt P55899 24-297; P61769 21-119); assay: SPR Biacore T200, huFcRn on biotin CAPture, pH 5.9, mean of two; pH 5.9
T3 construct: also called human FcRn
Protocol: (§6) The interaction of the antibodies with human Fc receptors was analysed by SPR using a Biacore™ T200 instrument in the following test conditions: [0242] Immobilization of anti-His antibodies on a CM5 sensor chip via amine coupling for seven Fcγ receptors: huFcγRI, huFcγRIIa_H131, huFcγRIIa_R131, huFcγRIIb/c, huFcγRIIIa_V158, huFcγRIIIa_F158, huFcγRIIIb, or use of biotin CAPture for the huFcRn analysis [0243] Capture of each of the Fc receptors [0244] Affinity constant determination by single cycle kinetics (SCK) at concentrations ranging from 0.6 nM to 2000 nM [0245] Interaction with huFcRn was studied at pH5.9 and pH7.4

[6] = target: T4, human FcγRIIIa V158 expressed on HEK293 T cells (human, UniProt P08637 17-254); assay: flow cytometry on HEK293 T cells expressing human FcγRIIIa V158, apparent KD, mean of three
T4 construct: whole, on cells; Cell-surface form, kept apart from the soluble His-captured receptor m11; also called HEK293 T human FcγRIIIa V158; hu FcγRIIIa
T4 sequence (P08637 17-254 F176V): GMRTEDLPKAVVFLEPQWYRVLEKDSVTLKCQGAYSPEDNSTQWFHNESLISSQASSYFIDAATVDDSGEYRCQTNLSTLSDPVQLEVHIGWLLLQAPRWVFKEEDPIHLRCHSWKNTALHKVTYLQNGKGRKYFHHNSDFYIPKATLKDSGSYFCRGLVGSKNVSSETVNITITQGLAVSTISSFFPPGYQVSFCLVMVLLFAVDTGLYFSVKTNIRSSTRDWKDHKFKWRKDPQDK
Protocol: as §3, §4, §5

[7] = target: T2, cynomolgus FcγRIIIa expressed on HEK293 …; assay: flow cytometry on HEK293 T cells expressing cyno FcγRIIIa, against BM2 IgG1 wt
Protocol: as §3, §4
(§7) Analyses were performed with VenturiOne® Software. Cells were first gated in FSC/SSC. From the resulting cell population, single cells and following viable cells were gated. Binding was analyzed as median fluorescence intensity (MFI) of the secondary antibody.

[8] = target: T1, human GPRC5D (full length, on cells); assay: cell-based or functional assay; remark: listed apart in the source
[9] = target: T5, huFcγRIIa_R167 (human, UniProt P12318 36-218, limits assumed); assay: SPR Biacore T200, receptor captured by anti-His, single cycle kinetics, mean of two
T5 construct: also called huFcγRIIA R167 polymorph
T5 sequence (looked up): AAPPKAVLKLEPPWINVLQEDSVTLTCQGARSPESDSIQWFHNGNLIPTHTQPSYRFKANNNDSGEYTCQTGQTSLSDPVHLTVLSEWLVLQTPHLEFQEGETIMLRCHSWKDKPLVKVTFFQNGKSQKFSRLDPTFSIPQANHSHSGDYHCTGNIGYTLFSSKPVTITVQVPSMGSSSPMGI
Protocol: as §6

[10] = target: T6, huFcγRIIIb (human, UniProt O75015 17-200); assay: as above
T6 construct: also called human FcγRIIIb
T6 sequence (O75015 17-200 limits assumed): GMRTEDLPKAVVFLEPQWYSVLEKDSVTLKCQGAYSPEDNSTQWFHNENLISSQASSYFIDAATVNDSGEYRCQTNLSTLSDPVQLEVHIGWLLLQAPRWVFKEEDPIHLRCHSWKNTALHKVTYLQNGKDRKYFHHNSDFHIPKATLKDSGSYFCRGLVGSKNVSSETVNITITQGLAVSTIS
Protocol: as §6

[11] = target: T7, huFcγRIIIa_V158 (human, UniProt P08637 17-208); assay: as above
T7 construct: Recombinant receptor captured on the SPR chip through anti-His antibodies; V at position 158 (mature numbering, as the name says); also called human FcγRIIIa V158 polymorph; CD16a
T7 sequence (P08637 17-208 F176V limits assumed): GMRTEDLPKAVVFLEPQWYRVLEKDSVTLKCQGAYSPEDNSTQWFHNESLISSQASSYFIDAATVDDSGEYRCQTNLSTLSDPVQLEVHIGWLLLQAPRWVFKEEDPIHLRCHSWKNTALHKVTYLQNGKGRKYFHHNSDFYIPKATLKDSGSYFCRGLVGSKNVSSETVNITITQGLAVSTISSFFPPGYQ
Protocol: as §6

[12] = target: T8, huFcγRIIIa_F158 (human, UniProt P08637 17-208); assay: as above
T8 construct: Recombinant receptor captured on the SPR chip through anti-His antibodies; also called human FcγRIIIa F158 polymorph; CD16a
T8 sequence (P08637 17-208 limits assumed): as the sequence (P08637 17-208 F176V limits assumed) above, with V160F counted along it
Protocol: as §6

[13] = target: T9, huFcγRI (human, UniProt P12314 16-288); assay: as above
T9 construct: also called human FcγRI
T9 sequence (P12314 16-288 limits assumed): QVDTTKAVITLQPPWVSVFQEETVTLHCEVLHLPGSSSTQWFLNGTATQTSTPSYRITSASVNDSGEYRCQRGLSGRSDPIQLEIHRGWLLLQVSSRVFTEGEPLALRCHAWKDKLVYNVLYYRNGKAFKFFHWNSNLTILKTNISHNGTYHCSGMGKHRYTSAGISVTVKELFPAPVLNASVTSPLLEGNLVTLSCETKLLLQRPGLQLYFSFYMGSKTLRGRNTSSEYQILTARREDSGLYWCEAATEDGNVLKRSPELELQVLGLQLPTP
Protocol: as §6

[14] = target: T10, huFcγRIIa_H167 (human, UniProt P12318 36-218, limits assumed); assay: as above
T10 construct: also called huFcγRIIA H167 polymorph
T10 sequence (looked up): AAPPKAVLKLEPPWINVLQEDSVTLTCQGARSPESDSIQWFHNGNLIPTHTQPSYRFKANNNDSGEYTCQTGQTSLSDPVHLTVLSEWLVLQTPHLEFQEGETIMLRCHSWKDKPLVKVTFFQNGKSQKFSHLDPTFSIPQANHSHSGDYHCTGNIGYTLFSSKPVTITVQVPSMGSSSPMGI
Protocol: as §6

[15] = target: T4, human FcγRIIIa V158 expressed on HEK293 …; assay: flow cytometry on HEK293 T cells expressing human FcγRIIIa V158, against BM2 IgG1 wt
Protocol: as §3, §4, §7

[16] = target: T1, human GPRC5D (full length, on cells); assay: cell-based or functional assay; remark: listed apart in the source
[17] = target: T1, human GPRC5D (full length, on cells); assay: FACS on MM.1R cells (GPRC5D-positive), serial antibody dilution, goat anti-human IgG A488 secondary antibody, median fluorescence intensity
Protocol: as §1, §2

[18] = target: T1, human GPRC5D (full length, on cells); assay: cell-based or functional assay; remark: listed apart in the source
[19] = target: T1, human GPRC5D (full length, on cells); assay: flow cytometry on MM.1R cells, apparent KD, N = 2
Protocol: as §1, §2

[20] = target: T3, huFcRn; assay: SPR Biacore T200, huFcRn on biotin CAPture, pH 5.9, mean of two; pH 5.9; fold change vs BM1 IgG1 wt
[21] = target: T5, huFcγRIIa_R167; assay: SPR Biacore T200, receptor captured by anti-His, single cycle kinetics
[22] = target: T1, human GPRC5D (full length, on cells); assay: flow cytometry on MM.1R cells, apparent KD, N = 1
Protocol: as §1, §2

[23] = target: T1, human GPRC5D (full length, on cells); assay: cell-based or functional assay; remark: listed apart in the source

T1 sequence (Q9NZD1 whole entry): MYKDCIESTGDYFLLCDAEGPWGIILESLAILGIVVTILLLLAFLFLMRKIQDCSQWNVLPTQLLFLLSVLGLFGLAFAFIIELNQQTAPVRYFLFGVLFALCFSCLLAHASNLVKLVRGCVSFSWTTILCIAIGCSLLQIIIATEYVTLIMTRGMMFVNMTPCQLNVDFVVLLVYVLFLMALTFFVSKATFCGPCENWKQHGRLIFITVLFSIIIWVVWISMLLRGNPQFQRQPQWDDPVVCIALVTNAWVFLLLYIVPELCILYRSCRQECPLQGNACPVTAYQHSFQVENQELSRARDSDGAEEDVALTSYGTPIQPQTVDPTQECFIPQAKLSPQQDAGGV

EC50 geometric mean, ADCP by macrophages against MM.1R cells (n = 5) [1]: 0.248 nM | EC50rel, ADCP by macrophages against MM.1R cells, Donor1 [1]: 0.297 nM | EC50rel, ADCP by macrophages against MM.1R cells, Donor3 [1]: 0.303 nM | EC50rel, ADCP by macrophages against MM.1R cells, Donor4 [1]: 0.517 nM | EC50rel, ADCP by macrophages against MM.1R cells, Donor5 [1]: 0.0528 nM | Kd [2]: 0.024 nM | Kd [3]: 1.4 nM | Kd [4]: 0.019 nM | Kd [5]: 982 nM | Kd [6]: 1.22 nM | Fold change vs IgG1 wt [7]: 26 fold | relEC50 Median, ADCC (calcein release) against MM.1R cells with NK cells [8]: 6 ng/ml and 40.1 pM | NormB [9]: 2 | Fold change vs BM1 IgG1 wt [10]: 34 fold | Kd [10]: 52.9 nM | Fold change vs BM1 IgG1 wt [11]: 4 fold | Kd [11]: 12.2 nM | NormB [11]: 38 | Fold change vs BM1 IgG1 wt [12]: 10 fold | Kd [12]: 22.7 nM | NormB [12]: 45 | Fold change vs BM1 IgG1 wt [13]: 2 fold | Kd [13]: 0.499 nM | Fold change vs BM1 IgG1 wt [14]: 1 fold | Kd [14]: 2580 nM | NormB [14]: 15 | Fold change vs IgG1 wt [15]: 28 fold | EC50rel geometric mean, ADCP by macrophages against MM.1R cells (n = 5) [16]: 0.0359 µg/mL | EC50 (read off the curve) [17]: ~0.02 nM | relEC50 median, ADCC over four days (Incucyte) against MM.1R cells with NK cells [18]: 0.87 ng/ml and 6 pM | Kd [19]: 0.018 nM | Fold change vs BM1 IgG1 wt [20]: 1 fold | binding result [21]: no binding (tested: 0.6 nM to 2000 nM) | Kd [22]: 0.036 nM | relEC50 Median, ADCC (calcein release) against EJM cells with NK cells [23]: 259 pM and 37.5 ng/ml
B1: clone 11 in DE-DSB format (anti-GPRC5D IgG1 with S239D/I332E/R292C/V302C Fc mutations) (antibody)
heavy: EVQLVESGGGLVQPGGSLRLSCAASGFTVSSNYMSWVRQAPGKGLEWVSVIYSGGSTYYADSVKGRFTISRDNSKNTLYLQMNSLRAEDTAVYYCARGFLAFGRYYYGMDVWGQGTTVTVSSASTKGPSVFPLAPSSKSTSGGTAALGCLVKDYFPEPVTVSWNSGALTSGVHTFPAVLQSSGLYSLSSVVTVPSSSLGTQTYICNVNHKPSNTKVDKKVEPKSCDKTHTCPPCPAPELLGGPDVFLFPPKPKDTLMISRTPEVTCVVVDVSHEDPEVKFNWYVDGVEVHNAKTKPCEEQYNSTYRCVSVLTVLHQDWLNGKEYKCKVSNKALPAPEEKTISKAKGQPREPQVYTLPPSRDELTKNQVSLTCLVKGFYPSDIAVEWESNGQPENNYKTTPPVLDSDGSFFLYSKLTVDKSRWQQGNVFSCSVMHEALHNHYTQKSLSLSPG
light: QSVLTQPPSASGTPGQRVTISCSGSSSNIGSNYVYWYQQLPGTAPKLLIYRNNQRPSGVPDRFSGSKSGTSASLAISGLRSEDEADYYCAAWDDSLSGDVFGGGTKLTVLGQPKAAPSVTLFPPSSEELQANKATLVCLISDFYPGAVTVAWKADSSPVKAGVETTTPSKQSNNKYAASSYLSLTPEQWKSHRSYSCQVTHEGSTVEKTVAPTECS
notes: human IgG1, lambda light chain; also called 11-DE-DSB; 11 DE-DSB
